In assay [1] the target is T1, mouse insulin receptor complexed with human insulin (mouse; human, UniProt P15208 28-1372; P01308 25-54; P01308 90-110).
T1 construct: whole, on cells;mature; also called muINSR/hINS complex
Description: FACS, CHO-K1 mouse INSR cells, signal with insulin divided by signal without insulin. (In general: In flow cytometry, cells or beads pass a laser one at a time.)
Description: (§1) Twenty five microliter aliquots of cells were plated into 96 well plates, mixed with 25 ul of antibody or PPE and incubated on ice for 1 h.
(§2) The cells were then washed once with FACS buffer and the binding of the antibody was detected by the addition of 25 ul of an appropriate fluorochrome-conjugated secondary antibody. […] After a final 15 min incubation on ice the cells were washed and the pellets resuspended in FACS buffer. The cells were analyzed on a FACSCAN™ (Becton-Dickinson, Milipitas, Calif.) and the data analyzed in both FLOWJO™ (Treestar, Ashland, Oreg.) and Microsoft Excel™.

Assay [2] addresses T2, mouse insulin receptor (mouse, UniProt P15208 28-1372).
T2 construct: whole, on cells; also called muINSR; mINSR
The assay can be described thus: FACS, serum-starved CHO-K1 cells expressing mouse INSR, no insulin.

Assay [3] concerns the target T3, human insulin receptor (human, UniProt P06213 28-1382).
T3 construct: whole, on cells; Uncomplexed receptor on serum-starved cells (CHOK1 transfectants or IM-9); also called hINSR; INSR
Description: FACS, serum-starved CHO-K1 cells expressing human INSR, no insulin.
Description: as §1, §2

Assay [4] addresses T1, mouse insulin receptor complexed with …. Description: FACS, serum-starved CHO-K1 cells expressing mouse INSR, with insulin.
Description: as §1, §2
Assay [5] has as its target T3, human insulin receptor. The assay can be described thus: cell-based or functional assay.
Assay [6] has as its target T1, mouse insulin receptor complexed with …. The assay can be described thus: FACS, serum-starved CHO-K1 cells expressing mouse INSR, with insulin [cont'd].
The target is the same in assay [7]. Description: FACS, CHO-K1 mouse INSR cells, signal with insulin divided by signal without insulin [cont'd].
Assay [8] addresses T2, mouse insulin receptor. The assay can be described thus: FACS, serum-starved CHO-K1 cells expressing mouse INSR, no insulin [cont'd].
Description: as §1, §2
In assay [9] the target is T3, human insulin receptor. Description: FACS, serum-starved CHO-K1 cells expressing human INSR, no insulin [cont'd].
Description: as §1, §2
Assay [10] deals with T4, human insulin receptor complexed with human insulin (human, UniProt P06213 28-1382; P01308 25-54; P01308 90-110).
T4 construct: whole, on cells;mature; also called hINSR-hINS complex; INS/INSR complex
Description: KinExA antibody depletion by hINSR8-CHOK1 cells, with 175 nM insulin.
Description: (§3) Beads were rotated at room temperature for 6 hours then allowed to settle. Supernatant was replaced with PBS with 50 mg/mL BSA Fraction V (Sigma-Aldrich, St. Louis, Mo.) and rotated overnight at 4° C. […] On the KinExA 3000 the sample was injected at 0.25 mL/minute for 240 seconds, then rinsed for 60 seconds in running buffer (PBS with 0.05% sodium azide), then 240 seconds of the detection solution was injected, followed by a final 90 second wash at 1 mL/minute. The difference in voltage from an early initial time-point and a time point near the end of the run was measured and used to calculate affinities. The INSR concentration on the cells was estimated at 2.5×10⁵ receptors/cell. Affinity was determined using the KinExA software (Sāpidyne, Boise Id.) and EC50's were calculated by non-linear fit in Prism (GraphPad Software, La Jolla Calif.).
(§4) Samples were incubated overnight at 4° C. for 18 hours then centrifuged to pellet cells and supernatants were removed for testing on the KinExA. […] Detection solution used was R-PE-(Fab′)2 fragment goat anti-Human IgG(H+L) (Jackson Immuno Research, West Grove Pa.).

For assay [11], the target named is T4, human insulin receptor complexed with …. Description: KinExA, affinity with insulin against affinity without insulin.
Description: as §3, §4
Assay [12] concerns the target T3, human insulin receptor. Description: KinExA antibody depletion by hINSR8-CHOK1 cells, without insulin. In general terms: A kinetic exclusion assay measures how much of one partner remains free in solution.
Description: as §3, §4
The target of assay [13] is T2, mouse insulin receptor. The assay can be described thus: cell-based or functional assay.
Assay [14] deals with T3, human insulin receptor. The assay can be described thus: cell-based or functional assay. The source holds these as a separate data set.
Assay [15] deals with T3, human insulin receptor. Description: cell-based or functional assay. This is another data set of the same source.
Assay [16] deals with T2, mouse insulin receptor. The assay can be described thus: cell-based or functional assay. This is another data set of the same source.
Assay [17] deals with T3, human insulin receptor. The assay can be described thus: cell-based or functional assay. The source holds these as a separate data set.
In assay [18] the target is T2, mouse insulin receptor. The assay can be described thus: FACS on mouse INSR; conditions not given on the sheet [cont'd].
For assay [19], the target named is T2, mouse insulin receptor. Description: flow cytometry, biotinylated IgG on mINSR-CHOK1 cells.
Assay [20] deals with T4, human insulin receptor complexed with …. Description: FACS, serum-starved CHO-K1 cells expressing human INSR, with insulin.
For assay [21] the target is unchanged. Description: FACS, CHO-K1 human INSR cells, signal with insulin divided by signal without insulin.
Description: as §1, §2
The target of assay [22] is T2, mouse insulin receptor. The assay can be described thus: cell-based or functional assay. The source holds these as a separate data set.
Assay [23] deals with T3, human insulin receptor. Description: cell-based or functional assay. The source holds these as a separate data set.
Assay [24] addresses T4, human insulin receptor complexed with …. The assay can be described thus: FACS, serum-starved CHO-K1 cells expressing human INSR, with insulin [cont'd].
Description: as §1, §2
For assay [25] the target is unchanged. Description: FACS, CHO-K1 human INSR cells, signal with insulin divided by signal without insulin [cont'd].
Description: as §1, §2

The source of these data is patent US20160009800A1 (XOMA US, published 2016).

B1: Ab061 (antibody, IgG2, V domains shown)
VH: QMQLVQSGAEVKKTGESLKISCQGYGYRFTDNWIGWVRQMPGRGLEWMGIIYPGDSETRYSPSFQGQVTISADKSISTAYLEWSSLKASDTAMYYCARHAPLAVAGMALGDWGQGTLVTVSS
VL: QTVVTQEPSFSVSPGGTVTLTCGLSSGSVSTGYSPGWYQQTPGQAPRTLVYNTNTRSSGVPDRFSGSILGNKAALTITGAQADDESDYYCALYMGSGTYVFGGGTKLTVL
notes: Negative modulator; also called XPA.015.209
In the case of B1, the “FACS area under log transformed data MFI ratio (+insulin/-insulin)” value in assay [1] was 0.37. In addition, the figures for the “FACS area under log transformed data MFI” value in [2], in assay [3] and in assay [4] were 462, 204 and 170, respectively. The “fold change in insulin EC50 (pAKT) relative to isotype control mAb, 10 ug/mL Ab061” value in assay [5] came to 269 fold.

B2: Ab070 (antibody, IgG2, V domains shown)
VH: EVQLVQSGAEVKKPGESLKISCKGSGYSFTSYWIGWVRQMPGKGLEWMGIIYPGDSDTRYSPSFQGQVTISADKSISTSYLQWSSLRASDTAMYYCARLGSGWYGNDYWGQGTLVTVSS
VL: SSELTQDPAVSVALGQTVRITCQGDSLRSYYTSWYQQKPGQAPVLVIFGKNNRPSGIPDRFSGSSSGNTASLTITGAQAEDEADYYCNSRDSSGNYAVFGGGTQLTVL
notes: Negative modulator; also called XPA.015.226
Regarding B2, the results for the “FACS area under log transformed data MFI” value in assay [6], in assay [8] and in assay [9] were 389, 587 and 283, respectively. Besides, the “FACS area under log transformed data MFI ratio (+insulin/-insulin)” value in assay [7] came out at 0.66. In addition, the “fold change in insulin EC50 (pAKT) relative to isotype control mAb, 20 ug/mL Ab070” value in assay [5] was found to be 17 fold.

B3: Ab001 (antibody, V domains shown)
VH: EVQLLESGGGLVQPGGSLRLSCAASGFTFSSYEMNWVRQAPGKGLEWVSSISSSSSYIYYADSVKGRFTISRDNSKNTLYLQMNSLRAEDTAVYYCARVRWYKDSDAFDIWGQGTLVTVSS
VL: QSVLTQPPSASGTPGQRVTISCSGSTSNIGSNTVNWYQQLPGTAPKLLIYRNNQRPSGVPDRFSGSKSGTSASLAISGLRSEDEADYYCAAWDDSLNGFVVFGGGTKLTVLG
notes: Positive modulator, Bin 1; also called XPA.015.138
Consider B3, for which the Kd (usually a measure of binding affinity in units of concentration) in assay [10] worked out at 0.116 nM; in assay [12] it was 12 nM. Also, the “Fold Improvement with Insulin” value in assay [11] turned out to be 103 fold. For the same molecule, the “fold-change in insulin EC50 (pAkt) relative to isotype control, 2 ug/ml Ab001, mouse INSR CHO-K1 cells” value in [13] worked out at 7 fold. Also, the “fold-change in insulin EC50 (pAkt) relative to isotype control, 2 ug/ml Ab001, human INSR CHO-K1 cells” value in assay [14] was determined as 12 fold. Also, the “pAKT assay, fold-decrease in insulin EC50 relative to isotype control Ab” value in assay [15] came to 9.7 fold. Moreover, the “positive modulation of insulin-dependent signaling, pAKT assay, CHOK1 mouse INSR” value in assay [16] is around 10 fold. Also, in assay [17], the “positive modulation of insulin-dependent signaling, pAKT assay, CHOK1 human INSR” value is around 10 fold.

B4: Ab045 (antibody, V domains shown)
VH: EVQLLESGGGLVQPGGSLRLSCAASGFTFSSYWMSWVRQAPGKGLEWVSGISGSGGSTDYADSVKGRFTISRDNSKNTLYLQMNSLRAEDTAVYYCARELPAFWSAFDYWGQGTLVTVSF
VL: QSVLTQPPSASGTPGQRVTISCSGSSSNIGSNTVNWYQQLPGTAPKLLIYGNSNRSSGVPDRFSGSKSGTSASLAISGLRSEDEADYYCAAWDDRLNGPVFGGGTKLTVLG
notes: also called XPA.015.111
For the molecule B4, in assay [18], the binding result is reported as “binds”.

B5: Ab086 (antibody, IgG2, V domains shown)
VH: EVQLVETGGGVVRPGGSLRLSCAASGFTFGDYGMSWVRQAPGKGLEWVSGINWNGGSTGYADSVKGRFTISRDNAKNSLYLQMNSLRAEDTALYYCARDILGVEFDYWGQGTLVTVSS
VL: QSALTQPASVSGSLGQSITISCTGTSSDIGLYKFVSWYQQHPGKAPKLMIYDVSYRPSGVSNRFSGSSSGNTASLTISGLQAEDEADYYCNSYTSSSTLVVFGGGTKLTVL
notes: also called XPA.015.219
Turning to B5, the binding result in assay [19] is listed as “binds”.

B6: Ab004 (antibody, V domains shown)
VH: EVQLLESGGGLVQPGGSLRLSCAASGFTFRNFAMMWVRQAPGKGLEWVSGISWNSGSIGYADSVKGRFTISRDNSKNTLYLQMNSLRAEDTAVYYCARPSGAYPTPFDNWGQGTLVTVSS
VL: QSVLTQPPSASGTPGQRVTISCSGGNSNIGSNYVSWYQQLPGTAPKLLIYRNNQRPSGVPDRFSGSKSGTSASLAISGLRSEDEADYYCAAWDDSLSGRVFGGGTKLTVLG
notes: Sole member of Bin 7; also called XPA.015.066
Turning to B6, in assay [19], the binding result is on record as “binds”.

B7: Ab049 (antibody, V domains shown)
VH: EVQLLESGGGLVQPGGSLRLSCAASGFTFSSNYMSWVRQAPGKGLEWVSSISGGSTYYADSRKGRFTISRDNSKNTLYLQMNSLRAEDTAVYYCARLDWSSGAFDIWGQGTLVTVSS
VL: QSVLTQPPSASGTPGQRVTISCSGRSSNIGYNYVSWYQQLPGTAPKLLIYGNSNRPSGVPDRFSGSKSGTSASLAISGLRSEDEADYYCAAWDDSLSGPVFGGGTKLTVLG
notes: also called XPA.015.165
Take B7: the binding result in assay [18] was “no binding”.

B8: Ab062 (antibody, IgG2, V domains shown)
VH: QVQLQQWGAGLLKPSETLSLTCAVYGGSFSGYYWSWIRQPPGKGLEWIGEINHSGSTNYNPSLKSRVTISVDTSKNQFSLKLSSVTAADTAVYYCARGPSGWYIREFDYWGQGTLVTVSS
VL: QSVLTQPPSVSGAPGQRVTISCTGSSSNIGAGYDVHWYQQLPGTAPKLLIYGNSNRPSGVPDRFSGSKSGTSASLAITGLQAEDEADYYCQSYDSSLSGSGVFGGGTKVTVL
notes: also called XPA.015.211
B8: the Kd in assay [10] was 0.108 nM; in assay [12], 0.124 nM. In addition, the “FACS area under log transformed data MFI ratio (+insulin/-insulin)” value in [1] stood at 0.7; in assay [21], 0.57. Further, the “FACS area under log transformed data MFI” value in assay [2] came out at 1450; in assay [20], 790; in assay [3], 1400; in assay [4] it was 1010. Besides, in assay [11], the “Fold Improvement with Insulin” value was found to be 1.1 fold. Also, the “fold rise of insulin EC50 (pAkt) in the presence of Ab062” value in assay [17] is 6.6 fold. Besides, the “EC50 of pAkt activation without insulin, mouse INSR CHO-K1 cells” value in assay [22] stood at 1.1 nM. The “relative maximum pAkt activation without insulin, mouse INSR CHO-K1 cells” value in [22] was 34%. The “EC50 of pAkt activation without insulin, human INSR CHO-K1 cells” value in assay [23] turned out to be 2.43 nM. In assay [23], the “relative maximum pAkt activation without insulin, human INSR CHO-K1 cells” value was found to be 52%.

B9: Ab079 (antibody, IgG2, V domains shown)
VH: QMQLVQSGAEMKKPGASVKVSCKASGYSFSDYGITWVRQAPGQGPEWMGWISGYNGNTNYAQKFQDRVTMTTDTSTSTAYMELRSLKSDDTAVYFCARARGVWMFDNWGQGTLVTVSS
VL: AIRMTQSPSTLSASVGDRVTITCRASQSISTWLAWYQQKPGKAPKLLIYTTSTLESGVPSRFSGSRSGTEFTLTISSLQPDDFATYYCQQYNSYPLTFGGGTKVEIK
notes: also called XPA.015.245
On to B9, for which the Kd in assay [10] turned out to be 0.496 nM; in [12], 9.6 nM. The “FACS area under log transformed data MFI” value in [24] turned out to be 385; in [6] it was 215; in [8], 154; in [9] it was 296. Further, in assay [11], the “Fold Improvement with Insulin” value was determined as 19.4 fold. Further, the “FACS area under log transformed data MFI ratio (+insulin/-insulin)” value in assay [7] came out at 1.39; in assay [25], 1.3. Moreover, the “fold-change in insulin EC50 (pAkt) relative to isotype control, 20 ug/ml Ab079, mouse INSR CHO-K1 cells” value in [13] was 8 fold. Besides, the “fold-change in insulin EC50 (pAkt) relative to isotype control, 10 ug/ml Ab079, human INSR CHO-K1 cells” value in [14] is 7 fold. Besides, in [15], the “pAKT assay, fold-decrease in insulin EC50 relative to isotype control Ab” value was determined as 6.7 fold.

B10: Ab047 (antibody, V domains shown)
VH: EVQLLESGGGLVQPGGSLRLSCAASGFTFSSYAMSWVRQAPGKGLEWVSSISGGSTYYADSRKGRFTISRDNSKNTLYLQMNSLRAEDTAVYYCARHADQWPGSWFDPWGQGTLVTVSS
VL: QSVLTQPPSASGTPGQRVTISCSGSSSNIGSNTVNWYQQLPGTAPKLLIYDNNKRPSGVPDRFSGSKSGTSASLAISGLRSEDEADYYCQSYDSSLSGWEVFGGGTKLTVLG
notes: also called XPA.015.121
As to B10, the binding result in assay [18] was “no binding”.
